Test results from article PMC8234983, “Unravelling the Complex Denaturant and Thermal-Induced Unfolding Equilibria of Human Phenylalanine Hydroxylase” (International Journal of Molecular Sciences, 2021).

B1: double truncated human phenylalanine hydroxylase (PAHd, Gly103-Thr427; ΔN1-102/ΔC428-452) (domain or fragment, UniProt P00439 103-427, looked up)
chain: GATVHELSRDKKKDTVPWFPRTIQELDRFANQILSYGAELDADHPGFKDPVYRARRKQFADIAYNYRHGQPIPRVEYMEEEKKTWGTVFKTLKSLYKTHACYEYNHIFPLLEKYCGFHEDNIPQLEDVSQFLQTCTGFRLRPVAGLLSSRDFLGGLAFRVFHCTQYIRHGSKPMYTPEPDICHELLGHVPLFSDRSFAQFSQEIGLASLGAPDEYIEKLATIYWFTVEFGLCKQGDSIKAYGAGLLSSFGELQYCLSEKPKLLPLELEKTAIQNYTVTEFQPLYYVAESFNDAKEKVRNFAATIPRPFSVRYDPYTQRIEVLDNT
notes: lacks most of the regulatory and multimerization domains; essentially the catalytic domain; Residues 103-117 are missing in the 1J8T PDB file; also called PAHd(103-427); truncated PAHd
B2: full-length human phenylalanine hydroxylase (PAHt, Met1-Lys452) (enzyme, UniProt P00439 1-452, looked up)
chain: MSTAVLENPGLGRKLSDFGQETSYIEDNCNQNGAISLIFSLKEEVGALAKVLRLFEENDVNLTHIESRPSRLKKDEYEFFTHLDKRSLPALTNIIKILRHDIGATVHELSRDKKKDTVPWFPRTIQELDRFANQILSYGAELDADHPGFKDPVYRARRKQFADIAYNYRHGQPIPRVEYMEEEKKTWGTVFKTLKSLYKTHACYEYNHIFPLLEKYCGFHEDNIPQLEDVSQFLQTCTGFRLRPVAGLLSSRDFLGGLAFRVFHCTQYIRHGSKPMYTPEPDICHELLGHVPLFSDRSFAQFSQEIGLASLGAPDEYIEKLATIYWFTVEFGLCKQGDSIKAYGAGLLSSFGELQYCLSEKPKLLPLELEKTAIQNYTVTEFQPLYYVAESFNDAKEKVRNFAATIPRPFSVRYDPYTQRIEVLDNTQQLKILADSINSEIGILCSALQKIK
notes: human phenylalanine hydroxylase (EC 1.14.16.1), full-length construction, residues Met 1-Lys 452; No Fe(II) was added to the recombinant protein; also called PAHt(1-452); full-length PAH

Legend:
P00439 [1] = experiment: AUC; sedimentation velocity, 25 °C, 45,000 rpm, 8 µM subunit, incubated overnight in 5.4 M urea; c(s) analysis
[2] = target: the molecule itself; experiment: AUC; sedimentation velocity, 25 °C, 45,000 rpm, 8 µM subunit, 0 M urea (native conditions); c(s) analysis
P00439 [3] = experiment: AUC; sedimentation velocity, 25 °C, 45,000 rpm, 8 µM subunit, incubated overnight in 7.4 M urea; c(s) analysis
P00439 [4] = experiment: AUC; sedimentation velocity, 25 °C, 45,000 rpm, 8 µM subunit, 0 M urea (native conditions); c(s) analysis

Protein | percent of total protein signal as fast-sedimenting polydisperse species (aggregates) (P00439 [1]) | stoichiometry N [2] | percent of total signal as aggregates (P00439 [3]) | percent of total signal as aggregates (P00439 [4])
B1 | from 9.6 S to 92.4 S and accounting for 98.3% of the total protein signal | 2 | The remaining 40% of the signal are species with sedimentation coefficients from 5.4 S to 18.8 S representing aggregates | 
B2 | multiple species of fast sedimentation at a broad range of 10.2–27.9 S representing 98% of the total protein signal | 4 | The rest of the protein signal at this high urea concentration, 13%, corresponds to aggregates of fast sedimentation | aggregates (6% total)
